“Also recorded” adds a separate entry of the source. Ends that are not written are not given here.
Experiments:
TF/heparanase complex [1] = target: T1, TF/heparanase complex (Homo sapiens, UniProt P13726+Q9Y251, DEL111-157/INS109GSGSG); test: Inhibition of heparanase procoagulant activity in the thrombin generation assay; type: biochemical; conditions: for heparanase procoagulant activity (thrombin generation): inhibitor added to the thrombin generation assay with heparanase
T1 construct: comprised of the 8 kDa and 50 kDa heparanase heterodimer (8+50); purchased American Diagnostica (Stanford, Conn., USA) for TF and factor VIIa; host or cells: heparanase GS3 made in house: conditioned medium of baculovirus-infected cells
T1 sequence (P13726 33-295, stated change not applied, one chain of several): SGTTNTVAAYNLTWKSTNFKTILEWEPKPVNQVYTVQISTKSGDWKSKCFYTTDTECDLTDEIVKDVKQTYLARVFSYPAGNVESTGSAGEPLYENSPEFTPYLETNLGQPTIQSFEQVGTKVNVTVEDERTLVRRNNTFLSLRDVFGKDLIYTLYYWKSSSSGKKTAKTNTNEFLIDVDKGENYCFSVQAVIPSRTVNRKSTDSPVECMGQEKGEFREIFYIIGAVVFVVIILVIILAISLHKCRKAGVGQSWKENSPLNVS
Method: FIG. 6B. Heparanase procoagulant activity is attenuated by TFPI and TFPI-2. Same as FIG. 1D, except that recombinant human TFPI and TFPI-2 were added prior to heparanase addition. The mean value±SD of three independent experiments is shown.
FIG. 6C. Heparanase procoagulant activity is abrogated by an anti-Xa derivative.
In order to verify that factor Xa produced in the presence of heparanase is active, thrombin generation, the next step in the coagulation cascade, was examined. The experiment described above (FIG. 1A) was repeated and plasma-derived human prothrombin (222 μM) was added following the addition of factor X. After 15 minutes at 37° C., chromogenic substrate for thrombin was added (1 mM). In the presence of heparanase, thrombine generation was increased (FIG. 1D).

TF/heparanase complex [2] = target: T1, TF/heparanase complex; test: Inhibition of heparanase procoagulant activity in the factor Xa generation assay; type: biochemical; conditions: for procoagulant effect of heparanase on Xa level: co-addition of peptide with heparanase, FIG. 23A; for procoagulant effect induced by heparanase (Xa level): peptide 25 μg/ml (15 μM), heparanase 1.5 μM, FIG. 26
Method: FIG. 23A. Factor Xa levels was evaluated by chromogenic substrate in an in-vitro assay including purified proteins of tissue factor (TF), factor VIIa, factor X and assay buffer.
FIG. 26. Factor Xa levels was evaluated by chromogenic substrate in an in-vitro assay including lipidated TF (0.004 μM), factor VIIa (0.04 μM) and factor X (1.4 μM). The Xa level was studied by a chromogenic substrate (1 mM).
(§1) Following preliminary experiments to quantify the appropriate protein doses, we performed a basic experiment of factor Xa generation in the following manner: the concentrations mentioned are the final concentrations. Lipidated recombinant human TF (0.004 μM, […]), recombinant human factor VIIa (0.04 μM) and plasma-derived human factor X (1.4 μM) were incubated in 50 μL assay buffer (0.06 M Tris, 0.04 M NaCl, 2 mM CaCl 2, 0.04% bovine serum albumin, pH 8.4) to a total volume of 125 μL in a 96-well sterile plate. After 15 min at 37° C., chromogenic substrate for factor Xa was added (1 mM). After 20 min, the reaction was stopped with 50 μL of glacial acetic acid and the level of factor Xa generation was determined using an enzyme-linked immunosorbent assay (ELISA) plate reader (Power Wave XS, BIO-TEK, VT, USA). In order to visualize the increased production of factor Xa by western blotting, the experiment was repeated with 7 μM factor X. After 15 min at 37° C., half of the reaction volume was subjected to blotting using monoclonal anti-human factor X/Xa heavy chain antibody.
The coagulation assay included the peptides and the following components: lipidated TF (0.004 μM), factor VIIa (0.04 μM) and factor X (1.4 μM). The Xa level was studied by a chromogenic substrate (1 mM).

TF/heparanase complex [3] = target: T2, TF/heparanase complex (Homo sapiens, UniProt Q9Y251); test: TF/heparanase inhibitory peptides in heparanase-injected ICR mice (TAT by ELISA); type: in vivo; conditions: peptide intra-peritoneal half an hour after heparanase, blood after 4 hours
T2 construct: endogenous in cells; host or cells: ICR mice in vivo (TF endogenous)
T2 sequence (Q9Y251 36-543): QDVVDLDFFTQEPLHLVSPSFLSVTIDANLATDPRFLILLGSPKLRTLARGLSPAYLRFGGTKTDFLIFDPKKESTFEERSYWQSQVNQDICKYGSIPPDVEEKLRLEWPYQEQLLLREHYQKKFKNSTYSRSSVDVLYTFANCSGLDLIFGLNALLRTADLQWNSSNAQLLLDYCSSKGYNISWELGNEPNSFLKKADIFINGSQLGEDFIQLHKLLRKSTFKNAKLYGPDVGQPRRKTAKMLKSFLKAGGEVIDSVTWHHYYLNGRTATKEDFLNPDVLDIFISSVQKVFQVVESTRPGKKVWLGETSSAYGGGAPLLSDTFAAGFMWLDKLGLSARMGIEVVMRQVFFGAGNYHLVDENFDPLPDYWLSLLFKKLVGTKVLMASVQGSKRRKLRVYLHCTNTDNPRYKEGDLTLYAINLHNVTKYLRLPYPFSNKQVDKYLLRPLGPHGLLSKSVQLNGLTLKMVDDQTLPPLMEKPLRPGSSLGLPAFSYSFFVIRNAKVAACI
Method: FIG. 23B. Heparanase was injected intra-peritoneal to ICR mice. Inhibitory peptides to TF/heparanase complex (number 5, 6, 21) were injected intra-peritoneal half an hour after heparanase. Four hours later the blood was drawn and Thrombin-antithrombin (TAT) level was measured by ELISA.
Methods: ICR mice, heparanase knock-out mice and heparanase over-expression mice were studied. Sepsis was induced by intra-peritoneal injection of lipopolysaccharides (LPS). Inhibitory peptides to TF/heparanase complex (number 11, 22, 5, 6, 7, 12, and 21 [SEQ IDs: 1-7]) were injected intra-peritoneal half an hour after heparanase or LPS. After 4 hours blood was obtained via sub-mandibular plexus puncture followed by mice sacrificing. Levels of thrombin-antithrombin (TAT), D-Dimer and IL-6 were tested using ELISA. Western blot to plasma factor VII and immunostaining of fibrinogen in lung, kidney and spleen were performed.

[4] = Water solubility of the peptides; type: physicochemical
TF-factor VIIa complex = target: T3, TF-factor VIIa complex (Homo sapiens, UniProt P13726); test: Activated factor X generation assay with purified TF, factor VIIa and factor X (chromogenic substrate); type: biochemical; conditions: overnight serum-free medium of 293 HEK cells over-expressing heparanase species, compared to mock
T3 construct: purchased American Diagnostica (Stanford, Conn., USA)
T3 sequence (P13726 33-295): as the sequence (P13726 33-295, stated change not applied, one chain of several) above
T3 sequence (P08709 61-212 partner limits assumed): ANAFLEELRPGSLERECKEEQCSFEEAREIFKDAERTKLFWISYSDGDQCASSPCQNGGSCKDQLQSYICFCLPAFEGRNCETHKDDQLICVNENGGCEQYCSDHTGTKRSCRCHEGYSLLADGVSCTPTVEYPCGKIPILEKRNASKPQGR
T3 sequence (P08709 213-466 partner limits assumed): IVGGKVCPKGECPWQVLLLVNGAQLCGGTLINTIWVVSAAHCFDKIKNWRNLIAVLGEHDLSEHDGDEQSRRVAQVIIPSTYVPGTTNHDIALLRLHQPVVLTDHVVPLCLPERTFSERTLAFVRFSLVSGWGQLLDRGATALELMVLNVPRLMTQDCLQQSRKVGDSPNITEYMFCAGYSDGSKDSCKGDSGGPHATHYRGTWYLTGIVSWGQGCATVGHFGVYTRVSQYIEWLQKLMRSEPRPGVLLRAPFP
Method: FIG. 1A. Recombinant human TF, recombinant human factor VIIa, and plasma-derived human factor X were incubated (15 min, 37° C.) in a total assay volume of 125 μL. Chromogenic substrate for the detection of factor Xa was then added (final concentration 1 mM). Recombinant active heparanase GS3 (Hepa) was added prior to the addition of the coagulation factors. The mean value±SD of three independent experiments in shown. […]
FIG. 1C. […] The mean value of two experiments is shown. Note a 2-fold increase in coagulation activity when the medium contained heparanase or its derivatives.
as §1
The factor Xa generation assay was performed as described in the Design and Methods section with increasing doses of recombinant human heparanase (GS3) added prior to the addition of the coagulation factors. […] It should be noted that factor X is composed of two polypeptide chains, a heavy chain with a molecular weight of 38 kDa and a light chain with a molecular weight of 18 kDa joined by a dipeptide Arg-Arg. The factor VIIa-TF complex activates the conversion of factor X to factor Xa by cleaving the heavy chain to a 33 kDa peptide. […] In order to exclude contamination of the heparanase preparation during the routine procedure of purification described in the Design and Methods section, the inventors tested the effect of overnight serum-free without phenol medium of 293 HEK cells over-expressing heparanase and its derivatives compared to mock. The proteins were further purified from the culture medium and analyzed. Similar quantities of proteins were obtained from the culture media.

Row | Molecule | procoagulant effect of heparanase on Xa level (TF/heparanase complex [2]) | procoagulant effect induced by heparanase (Xa level) (TF/heparanase complex [2]) | other results
1 | O=C(NC[C@H]1CN(c2ccc(N3CCOCC3=O)cc2)C(=O)O1)c1ccc(Cl)s1 [Rivaroxaban, reference compound] | – | – | heparanase procoagulant activity (thrombin generation) (TF/heparanase complex [1]): abolished the effect of heparanase; heparanase procoagulant activity (thrombin generation) (TF/heparanase complex [1]; listed as rivaroxaban): abolished the procoagulant effect of heparanase
2 | AEICLLPLDYGPCR (cysteine pairing not given here) [Peptide 6] | abolished the procoagulant effect of heparanase | inhibited the procoagulant effect induced by heparanase | procoagulant effect of heparanase (TAT level) (TF/heparanase complex [3]): completely abolished the procoagulant effect of heparanase
3 | Ac-AEICLLPLDYGPCR (cysteine pairing not given here) [Peptide 6-Ac] | – | inhibited the procoagulant effect induced by heparanase | –
4 | Ac-Ile Cys Leu Leu Pro Leu Asp Tyr Gly Pro Cys Arg Ala Leu (Ac-ICLLPLDYGPCRAL; cysteine pairing not given here) [Peptide 5-Ac] | – | inhibited the procoagulant effect induced by heparanase | –
5 | Ac-NNAEICLLPLDYGP [Peptide 7-Ac] | – | – | water solubility compared to non-acetylated counterpart [4]: more water soluble than their corresponding non acetylated counterparts
6 | ICLLPLDYGPCRAL (cysteine pairing not given here) [Peptide 5] | abolished the procoagulant effect of heparanase | inhibited the procoagulant effect induced by heparanase | procoagulant effect of heparanase (TAT level) (TF/heparanase complex [3]): markedly decreased heparanase effect
7 | NANNFYTWEAC [Peptide 21] | abolished the procoagulant effect of heparanase | – | procoagulant effect of heparanase (TAT level) (TF/heparanase complex [3]): markedly decreased heparanase effect
8 | NNAEICLLPLDYGP [Peptide 7] | abolished the procoagulant effect of heparanase | inhibited the procoagulant effect induced by heparanase | –
9 | RYYYDRYTQSCRQF [Peptide 12] | abolished the procoagulant effect of heparanase | – | –
10 | TFPI: recombinant human tissue factor pathway inhibitor [reference compound] | – | – | heparanase procoagulant activity (thrombin generation) (TF/heparanase complex [1]): attenuated the effect; also recorded: mildly attenuated thrombin generation but failed to abolish the procoagulant effect of heparanase
11 | TFPI-2: recombinant human tissue factor pathway inhibitor 2, purchased from R&D (protein, UniProt P48307 23-235, looked up) Tissue factor pathway …: DAAQEPTGNNAEICLLPLDYGPCRALLLRYYYDRYTQSCRQFLYGGCEGNANNFYTWEACDDACWRIEKVPKVCRLQVSVDDQCEGSTEKYFFNLSSMTCEKFFSGGCHRNRIENRFPDEATCMGFCAPKKIPSFCYSPKDEGLCSANVTRYYFNPRYRTCDAFTYTGCGGNDNNFVSREDCKRACAKALKKKKKMPKLRFASRIRKIRKKQF | – | – | heparanase procoagulant activity (thrombin generation) (TF/heparanase complex [1]): attenuated the effect; also recorded: mildly attenuated thrombin generation but failed to abolish the procoagulant effect of heparanase; inhibitory potency compared to TFPI in the presence of heparanase (TF/heparanase complex [1]; thrombin generation with heparanase): more effective inhibitor than TFPI; also recorded: more potent than TFPI
12 | double mutant inactive heparanase: heparanase mutated at Glu225 and Glu343, critical for the enzyme catalytic activity (protein) QDVVDLDFFTQEPLHLVSPSFLSVTIDANLATDPRFLILLGSPKLRTLARGLSPAYLRFGGTKTDFLIFDPKKESTFEERSYWQSQVNQDICKYGSIPPDVEEKLRLEWPYQEQLLLREHYQKKFKNSTYSRSSVDVLYTFANCSGLDLIFGLNALLRTADLQWNSSNAQLLLDYCSSKGYNISWELGNAPNSFLKKADIFINGSQLGEDFIQLHKLLRKSTFKNAKLYGPDVGQPRRKTAKMLKSFLKAGGEVIDSVTWHHYYLNGRTATKEDFLNPDVLDIFISSVQKVFQVVESTRPGKKVWLGATSSAYGGGAPLLSDTFAAGFMWLDKLGLSARMGIEVVMRQVFFGAGNYHLVDENFDPLPDYWLSLLFKKLVGTKVLMASVQGSKRRKLRVYLHCTNTDNPRYKEGDLTLYAINLHNVTKYLRLPYPFSNKQVDKYLLRPLGPHGLLSKSVQLNGLTLKMVDDQTLPPLMEKPLRPGSSLGLPAFSYSFFVIRNAKVAACI | – | – | increase in factor Xa levels (TF-factor VIIa complex): increased factor Xa levels

Reference: patent US11448657B2, “Methods and kits for assessing Heparanase procoagulant activity, compositions comprising Heparanase, and methods for the treatment of coagulation-related disorders” (RAMBAM MED-TECH, priority 2011, dated 2022)
